Test results: patent publication WO2015137441A1

Biological target: myrNAP22 (myristoylated NAP22), rat (rat) (UniProt Q05175)
Test: immunoprecipitation with control beads, supernatant on SDS-PAGE, Coomassie staining

Sequence of UniProt Q05175 (Q05175 2-220 limits assumed): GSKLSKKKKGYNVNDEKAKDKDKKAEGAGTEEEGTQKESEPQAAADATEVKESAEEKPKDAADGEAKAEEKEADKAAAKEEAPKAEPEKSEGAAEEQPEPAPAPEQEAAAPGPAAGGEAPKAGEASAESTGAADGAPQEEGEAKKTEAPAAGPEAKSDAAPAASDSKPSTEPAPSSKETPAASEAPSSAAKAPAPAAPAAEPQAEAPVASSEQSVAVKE

## control clone (an antibody clone randomly cloned from the library) (scFv)
  signal intensity of myrNAP22 left in the supernatant (lane 2) relative to input (lane 3): 90%
